In patent publication US20200239562A1 (ANAPTYSBIO, published 2020) one finds Kd data, which are given here for one molecule.

In this assay the target is T1, human IL-33 (human, UniProt O95760 112-270, limits assumed).
T1 construct: also called Interleukin-33
T1 sequence (looked up): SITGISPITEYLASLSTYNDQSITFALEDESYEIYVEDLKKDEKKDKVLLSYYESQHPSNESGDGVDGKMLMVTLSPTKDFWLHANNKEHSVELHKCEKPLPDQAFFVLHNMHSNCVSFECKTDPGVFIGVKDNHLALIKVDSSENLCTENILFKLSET
In words: method not stated.

B1: ANB020 (antibody, V domains shown)
VH: QVQLMQSGAEVKKPGASVKVSCKASGYTFTSYWMHWVRQAPGQGLEWMGTIYPRNSNTDYNQKFKARVTMTRDTSTSTVYMELSSLRSEDTAVYYCARPLYYYLTSPPTLFWGQGTLVTVSS
VL: DIQLTQSPSFLSASVGDRVTLTCKASQDVGTAVAWTQQKPGKAPKLLIYWASTRHTGVPSRFSGSGSGTEFTLTISSLQPEDFATYYCQQAKTYPFTFGSGTKLEIK
On to B1, for which the Kd (as a rule, the constant that tells how readily two partners part at equilibrium) is roughly 1 pM.
